Results from EP4681729A1.

Tests used:
[1] = biological target: h-PVRIG-his (his-tagged human PVRIG recombinant protein) (human) (UniProt Q6DKI7); experiment: ELISA, human PVRIG recombinant protein
[2] = biological target: h-PVRIG-his (his-tagged human PVRIG recombinant protein) (human) (UniProt Q6DKI7); experiment: Fortebio BLI, antibody on Protein A sensor, his-tagged human PVRIG 64-4 nM, 1:1 fit
[3] = biological target: h-PVRIG-mIgG2a Fc (mouse IgG2a Fc-tagged human PVRIG recombinant protein) (human; mouse) (UniProt Q6DKI7); experiment: blocking ELISA (method of Example 2-3), human PVRL2 as the ligand that is blocked
h-PVRIG-mIgG2a Fc (mouse IgG2a Fc-tagged human PVRIG recombinant protein) (human; mouse), sequence (Q6DKI7 41-171 limits assumed): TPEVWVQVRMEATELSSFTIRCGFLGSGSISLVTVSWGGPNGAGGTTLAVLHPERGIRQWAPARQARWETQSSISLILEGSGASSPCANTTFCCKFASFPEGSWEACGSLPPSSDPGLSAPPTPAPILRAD

[4] = biological target: h-PVRIG-his (his-tagged human PVRIG recombinant protein) (human) (UniProt Q6DKI7); experiment: ELISA, plate coated with PVRIG-his
[5] = biological target: h-PVRIG-mIgG2a Fc (mouse IgG2a Fc-tagged human PVRIG recombinant protein) (human; mouse) (UniProt Q6DKI7); experiment: competition ELISA, coated h-PVRIG-mIgG2a Fc, his-tagged PVRL2 as the ligand that is blocked

h-PVRIG-his (his-tagged human PVRIG recombinant protein) (human), sequence (Q6DKI7 41-171 limits assumed): as above

B1: Tab5 (antibody, from another filing, V domains shown)
VH: EVQLVESGGGVVKPGGSLRLSCAASGFTFGTSSMNWVRQAPGKGLEWVAVISFDGTEIHYADSVKGRFTISRDNSKSTVFLQMNSLRPDDTALYYCAKGSGNIYFYSGMDVWGQGTTVTVSS
VL: DIQMTQSPSTLSASVGDRVTITCRAGQSISGWLAWFQQKPGKAPNLLIYETSTLESGVPSRFSGSGSGTEYTLTISSLQPDDFATYYCQQYYSYPLTFGQGTKVEIKR
In the case of B1, the EC50 [1] is reported as 1.41 nM, the Kd [2] is reported as 0.219 nM and the koff [2] is reported as 1.61e-05 s⁻¹. For the same binder, the kon [2] was 737000 M⁻¹ s⁻¹, the IC50 [3] was 0.964 nM and the EC50 [4] was 2.86 nM. It also gave an IC50 [5] of 1.16 nM.
